Measurements published in patent US20080280308A1.

Target: β2 adrenergic receptor
Test: ELISA of panned Gs library clones on reconstituted receptor

ELISA | Molecule
0.047 | ERLHRRLFQLH [BAR8 …]
0.079 | NCMKFRSCGLF [BAR20 …]
0.028 | PCIQLGQYESF [BAR40 …]
0.218 | QRIHRRPFKFF [BAR1 …]
0.361 | PRPRLLRFKIP [AG19 …]
0.048 | HRRHIGPFALL [BAR11 …]
0.185 | QWMDLRQHELL [BAR3 …]
0.026 | QRLRLRKYRLF [BAR31 …]
0.197 | QRVHLRQDELL [BAR2 …]
0.431 | RWLHWQYRGRG [AG20 …]

Further lines, the molecule ahead of its results:

Molecule | ELISA
QGEHLRQLQLQ [AG2 …] | 0.33
DRMHLWRFGLL [AG11 …] | 0.192
QRMPLRLFEFL [AG3 …] | 0.217
QRLRLGPDELF [AG4 …] | 0.291
QRLHLRGYEFL [AG13 …] | 0.054
QRMPLRQYELL [AG9 …] | 0.19
QGMQLRRFKLR [AG1 …] | 0.435
QRMNLGPCGLL [AG18 …] | 0.155

Target: human thrombin receptor (PAR1) (human) (UniProt P25116)
Sequence (P25116 42-425): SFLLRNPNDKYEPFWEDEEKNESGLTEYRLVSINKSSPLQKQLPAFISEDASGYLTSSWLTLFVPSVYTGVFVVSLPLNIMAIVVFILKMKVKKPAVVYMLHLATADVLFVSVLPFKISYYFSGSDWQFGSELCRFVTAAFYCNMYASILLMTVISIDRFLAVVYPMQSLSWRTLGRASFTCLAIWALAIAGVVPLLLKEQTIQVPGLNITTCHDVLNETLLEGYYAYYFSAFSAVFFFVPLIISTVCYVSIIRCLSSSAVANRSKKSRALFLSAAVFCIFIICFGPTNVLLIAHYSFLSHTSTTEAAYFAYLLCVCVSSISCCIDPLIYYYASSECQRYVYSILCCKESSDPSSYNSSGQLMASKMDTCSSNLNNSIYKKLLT
Test: ELISA, purified MBP-Gαq on reconstituted PAR1 with thrombin receptor activating peptide

IC50 [µM] | Molecule
0.214 | maltose binding protein-Gαq (MBP-Gαq)

Target: light-activated rhodopsin (bovine) (UniProt P02699)
Sequence (P02699 whole entry, the tested form may be a part): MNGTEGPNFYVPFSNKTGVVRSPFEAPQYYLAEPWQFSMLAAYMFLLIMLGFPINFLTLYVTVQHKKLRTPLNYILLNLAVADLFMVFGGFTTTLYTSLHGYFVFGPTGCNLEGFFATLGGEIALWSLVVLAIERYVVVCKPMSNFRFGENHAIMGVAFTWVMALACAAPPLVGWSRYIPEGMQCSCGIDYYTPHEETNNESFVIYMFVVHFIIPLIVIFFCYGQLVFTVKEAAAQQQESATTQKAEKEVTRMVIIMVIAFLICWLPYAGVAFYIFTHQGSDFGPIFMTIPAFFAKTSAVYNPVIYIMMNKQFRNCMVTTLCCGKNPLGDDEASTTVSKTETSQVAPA
Test: ELISA, MBP fusion on light-activated rhodopsin

IC50 [µM] | Molecule
6 | MBP-Gαt340-350K341R
